Source: the supplement of paper PMC12042874
± gives the uncertainty stated by the source.

Assay: amyloid nucleation score (Sup35N fusion, yeast selection) (log enrichment); library NNK1; higher = more nucleation; inactive = no reads after selection
Procedure, shortened: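 Plasmid inserts were Illumina-sequenced at input and output from psi-negative yeast expressing Sup35N fused to peptides of 20 random codons. The yeast were induced with 100 μM copper sulfate for 24 hours and grown 7 days at 30°C on medium lacking adenine and uracil, and sequences with under 100 input reads were excluded. Nucleation score is the DiMSum log enrichment of output over input reads, centred on the mode score of non-aggregating sequences.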

Substance	amyloid nucleation score
TFNGFFCRCPSFKIYFHEVL	0.825 ± 0.24
TFQNVLLLGSLVWNNNKS	0.24 ± 0.55
TFSHNIIRSCLTKESVSFP	inactive
TFSMSQNWVLNCAYLVIGYH	4 ± 0.14
TFSRRASDFEVNV	-1.25 ± 2.7
TFTSLNNVVYIDISDTSDKN	3.81 ± 0.073
TFVYLCVAHS	1.07 ± 0.53
TFYGY	-0.487 ± 1.4
TFYYPINFHTLGLYKLVVML	0.589 ± 0.33
TGCCFYVSDHF	7.88 ± 0.071
TGCRGSVMSFDMLFSYILYL	0.205 ± 0.26
TGKSRDNRNVDGNL	0.063 ± 0.38
TGMGGV	0.177 ± 1.2
TGNCAMFPTWLHVIPFSQY	3.1 ± 0.14
TGNGRWVDFFRYRYGLKSRS	inactive
TGSMVFLMVVAGSCLFGLSE	0.652 ± 0.24
TGYFNTRVWLDRLDYVLETN	-0.44 ± 0.29
THYYCVLTGKITRRVLYILL	-1.13 ± 0.67
TIFLINIPANFSMGMLHAHR	0.303 ± 0.86
TIFNLLPMGC	0.975 ± 0.58
TIFTPNIR	0.132 ± 0.66
TISAI	0.142 ± 0.92
TISILCQYQVMGTIFIYVVQ	1.66 ± 0.13
TKALLQEVPIT	0.345 ± 1.2
TKFIE	1.2 ± 0.37

Substance	amyloid nucleation score
TKIGKYKFAYCNAIAGARVE	0.766 ± 0.87
TKIVFIVL	6.02 ± 0.084
TLCYYLVWRR	0.076 ± 0.29
TLDLTHNLCLG	0.491 ± 0.37
TLDRWTVWDLR	0.275 ± 0.32
TLGAVHTVHVRFGESSNVFL	0.055 ± 0.74
TLGSIGLAIGRSTTGGRS	0.51 ± 0.9
TLHYRWECVLCPACRYGLSD	1.14 ± 0.68
TLKAVHTLTTD	2.4 ± 0.23
TLLNDIFLLCCDSTSNDLMC	1.56 ± 0.43
TLLWGTLSAGHS	inactive
TLNQHY	0.025 ± 0.55
TLSLFLRKGSRTLRCVCPRG	-0.112 ± 0.33
TLSLTNYELSKQSWMVLC	-0.236 ± 0.64
TLTYPMCGSIG	1.09 ± 0.47
TLVGKVLADDSRGFINCR	0.924 ± 0.97
TMCEYSHFLLRAMNNLMENV	-1.57 ± 2.7
TMGSLMFWF	-0.356 ± 0.95
TMHVMVGGYL	1.38 ± 0.41
TMLMESTIRRRC	-0.021 ± 0.54
TMLTWASRRLDYFSGALCFM	-0.119 ± 0.45
TMVCKGSCFWSSWSITFPLQ	inactive
TMVGTMVSMF	-0.539 ± 0.45
TMVVNLARRAPPVLPSGRMT	0.71 ± 0.74
TNDKCHSITVFSYREVDWTW	0.445 ± 0.29

Substance	amyloid nucleation score
TNKGFQYSGLVYCCWVRYLF	inactive
TNLMSFY	-0.721 ± 1.1
TNMRTWFSGSFTILKCTDFQ	0.744 ± 0.74
TPAASIRLTRLPEGLIFI	0.47 ± 0.95
TPCNVLGNSGPVWSWNP	0.166 ± 0.81
TPLNTLYRLPMGNWLG	0.06 ± 0.26
TPNMCGWLVLTSM	-0.448 ± 0.62
TPSLLVAVRILAAVMPSWET	-0.746 ± 0.43
TQVSVFQ	-1.3 ± 0.83
TRCASC	0.3 ± 0.65
TRCYFNSLMCTDTNSCIAGV	-0.135 ± 0.26
TRFLLLSLRDGSEQV	0.577 ± 0.73
TRFLNDIVMSIDSSIIDPTC	0.809 ± 0.7
TRIMVDFLLDWHCRMVKLVN	0.33 ± 0.44
TRLCFGFWAKIEWMRSVSGV	0.082 ± 0.64
TRLKFGGSKHESSQT	1.18 ± 0.43
TRLSMLIYALTGNVMSGSCV	0.505 ± 0.46
TRMCLRAKSMWVVDSN	0.068 ± 0.48
TRMITWRPFRSSWVFTNLYE	2.04 ± 0.19
TRMRLPP	-0.299 ± 0.48
TRMRSSKSSVA	0.532 ± 0.42
TRQWGHFSLYGESYFSCI	0.187 ± 0.63
TRRHKYFEWD	-0.285 ± 0.8
